Test: yeast display, Sf9 membrane polyspecificity reagent, FACS + sequencing; frameworks hold sequencing errors
How it was run: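 A synthetic nanobody library was expressed on Saccharomyces cerevisiae BJ5465 by galactose induction for 36–48 hours. The library was stained for 1 hour at 4 °C with 10% biotinylated, detergent-solubilized Sf9 membrane reagent and enriched with streptavidin microbeads before FACS. Low and high (top ~1%) gates were set on anti-HA fluorescence for expression and streptavidin fluorescence for reagent binding, and each polyreactivity label reflects the gate of origin.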

| Sequence | polyreactivity (PSR sort gate) |
| --- | --- |
| QVQLVESGGGLVQAGGSLRLSCAASGYIFFFYAMGWYRQAPGKERELVASITYRGGSTYYADSVKGRFTISRDNSKNTVYLQMNSLKPEDTAVYYCAADVRASRFDYWGQGTQVTVSS | low polyreactivity |
| QVQLVESGGGLVQAGGSLRLSCAASGYIFFGNAMGWYRQAPGKERELVAAIRWRGTSTYYADSVKGRFTISRDNAKNTVYLQMNSLKPEDTAVYYCARLRTVGGYSKYDYWGQGSQVTVSS | low polyreactivity |
| QVQLVESGGGLVQAGGSLRLSCAASGYIFGGNTLGWYRQAPGKERELVAAISYSGTSTYYADSVKGRFTISRDNAKNTVYLQMNSLKPEDTAVYYCAARERWYGSYYWGQGTQVTVSS | high polyreactivity |
| QVQLVESGGGLVQAGGSLRLSCAASGYIFGHYAMGWYRQAPGKERELVAGITWRGGSTYYADSVKGRFTISRDNAKNTVYLQMNSLKPEDTAVYYCNAQYTQRWPYGLYYEMDYWGQGTQVTVSS | low polyreactivity |
| QVQLVESGGGLVQAGGSLRLSCAASGYIFGHYTMGWYRQAPGKERELVAGISSGGITYYADSVKGRFTISRDNAKNSDYLQMNSLKPEDTAVYYCAAYWRRRLDYYYWGQGTQVTVSS | high polyreactivity |
| QVQLVESGGGLVQAGGSLRLSCAASGYIFGNYAMGWYRQAPGKERELVAAISKSGVTTYYADSVKGRFTISRDNAKNTVYLQMNSLKPEDTAVYYCNARSWRPINARYNEYDYWGQGTQVTVSS | low polyreactivity |
| QVQLVESGGGLVQAGGSLRLSCAASGYIFGVYAMGWYRQAPGKERELVAVITVTGGSTYYADSVKGRFTISRDNAKNTVYLQMNSLKPEDTAVYYCAARGYGNLARVYHGYGYWGQGTQVTVSS | high polyreactivity |
| QVQLVESGGGLVQAGGSLRLSCAASGYIFGYNAMGWYRQAAGQERELVAAITYSGGNTYYADSVKGRFTISRDNANNTVYLQMNSLKPEDTAVYYCAADFLYGAEGNEYWGQGTQVTVSS | high polyreactivity |
| QVQLVESGGGLVQAGGSLRLSCAASGYIFGYYVMGWYRQAPGKERELVAAITGRGGSTYYADSVKGRFTISRDNAKNTVYLQMISLKPEDTAVYDCAADATSYPYDPWHLYEIWEYYYWGQGTQVTVSS | low polyreactivity |
| QVQLVESGGGLVQAGGSLRLSCAASGYIFHLYGMGWYRQAPGKERELVARISYRGGSTYYADSVKGRFTISRDNAKNTVYLQMNSLKPEDTAVYYCAKDYYKHYYWGQGTQVTVSS | high polyreactivity |
| QVQLVESGGGLVQAGGSLRLSCAASGYIFHRYAMGWYRQAPGKERELVAAITWTGARTYYADSVKGRFTISRDNAKNTVYLQMNSLKPEDTAVYYAAPASYSFAKSGYWGQGTQVTVSS | high polyreactivity |
| QVQLVESGGGLVQAGGSLRLSCAASGYIFIFYAMGWYRQAPGKDRELVAAITDSGGSTYYADSVKGRFTISRDNAQNTVYLQKNSLKPEDTAVYYCADPYYFYRDRYRLDYWGQGTQVTVSS | low polyreactivity |
| QVQLVESGGGLVQAGGSLRLSCAASGYIFKNYAMGWYRQAPGKERELVAAITRRGASTYYADSVKGRFTITRDNAKNTVYLQMNSLKPEDTAVYYCAAYPWPPGEYDYWGQGTQVTVSS | low polyreactivity |
| QVQLVESGGGLVQAGGSLRLSCAASGYIFKPNTMGWYRQAPGKERELVAAITRGGRTKYADSVKGRFTISRDNAKNTVYLQMNSLKPEDTAVYYCAAALPVQYRDMYSWGQGTQVTVSS | high polyreactivity |
| QVQLVESGGGLVQAGGSLRLSCAASGYIFKSNVMGWYRQAPGKERELVAAISWSGGRTYYADSVKGRFTISRDNAKNTDYLQMNSLKPEDTAVYYCAAVGRQSNYYVDYDYWGQGTQVTVSS | high polyreactivity |
| QVQLVESGGGLVQAGGSLRLSCAASGYIFKSNVMGWYRQAPGKERELVAAISWSGGRTYYADSVKGRFTISRDNAKNTVYFQRNSLKPEDTAVYYCAAVGRQSNYYVDYDYWGQGTQVTVSS | high polyreactivity |
| QVQLVESGGGLVQAGGSLRLSCAASGYIFKYNAMGWYRQAPGKERELVAAISGRGGSTYYADSVKGRFTISRDNAKNTVYLQMNSLKPEDTAVYYCNADYQARRYNYWGQGTQVTVSS | high polyreactivity |
| QVQLVESGGGLVQAGGSLRLSCAASGYIFKYYVMGWYIQAPGKERELVAGISSTGGTTYYADSVKGRFTISRDNAKNTVYLQMNSLKPEDSAVYYFAADRVYEASQGYTYFDYDYWGQGTQVTVSS | low polyreactivity |
| QVQLVESGGGLVQAGGSLRLSCAASGYIFLFYGMGWYRQAPGKERELVASITGTGGNTYYADSVKWRFTISRDNAKNTVYLQMNSLKPEDTAVDYCYADDGYSWGYAYYYSELDYWGQGTQVTVSS | low polyreactivity |
| QVQLVESGGGLVQAGGSLRLSCAASGYIFLGNAMGWYRQAPGKERELVAAISRSGGSTYYADSVKGRFTISRDNAKNTVYLQMNSLKPEATAVYYCAAGTRIYNSWIRFDYWGQGTQVTVSS | high polyreactivity |
| QVQLVESGGGLVQAGGSLRLSCAASGYIFLTNAMGWYRPAPGKERELVAAISVSGGRTYYADSVKGRFTISRDNAKNTVYLQMNSLKPEDTAVYYCNTLLTYGYDYWGQGTQVTVSS | low polyreactivity |
| QVQLVESGGGLVQAGGSLRLSCAASGYIFLTNAMGWYRQAPGKEREWVAAISVSGGRTYYADSVKGRFTISRDNAKNTVYLQMNSLKPEDTAVYYCNTLLTYGYDYWGQGTQVTVSS | low polyreactivity |

| Sequence | polyreactivity (PSR sort gate) |
| --- | --- |
| QVQLVESGGGLVQAGGSLRLSCAASGYIFNYYAMGWYRQAPGKERELVAAISWDGTDTYYADSVKGRFTISRDNAKNTVYLQMNSLKPEDTAVYYCNADYDVYGWRNYWGQGTQVTVSS | low polyreactivity |
| QVQLVESGGGLVQAGGSLRLSCAASGYIFPKNAMGGYRQAPGKERELVAAITGSGGSTYYADSVKGRFTISRDNAKNTVYLQMISLKPEDTAVYYCAKRSWFEYDYWGQGTQVTVSS | low polyreactivity |
| QVQLVESGGGLVQAGGSLRLSCAASGYIFPTYGMGWYRQAPGKERELVADITNNAGSTYYADSVKGRFTISRDKAKNTVYLQMKSLKPEDTEVYYCAADAYWPYWPYSYDYWGHGTQVTVSS | low polyreactivity |
| QVQLVESGGGLVQAGGSLRLSCAASGYIFQPYAMGWYRQAPGKERELVAAIDWTGGRTYYADSVKGRFTISRDNAKNTVYLQMNSLKPEVTAVYYCNADFGYWWDGRRYDYWGQGTQVTVSS | low polyreactivity |
| QVQLVESGGGLVQAGGSLRLSCAASGYIFRFNAMGWYRQAPGKERELVAVITKSGGSTYYADSVKGRFTISRDNAKNTVYLQMNSLKPEDTAVYDCNADRFYIDYTNTYDSIRDYWGQGTQVTVSS | low polyreactivity |
| QVQLVESGGGLVQAGGSLRLSCAASGYIFRGYVMGWYRQAPGKERELVAGISRSGSSTYYADSVKGRFTISRDNAKNTVYLQMNSLKPEDTAVYYCAAVRSGIEYGYWGQGTQVTVSS | high polyreactivity |
| QVQLVESGGGLVQAGGSLRLSCAASGYIFRHYAMGWYRQAPGKERELVAAISGRGGSTYYADSVKGRFTISRDNAKNTVYLQMNSLKPEDTAVYYCAKDRKAVGDFYYWGQGTQVTVSS | high polyreactivity |
| QVQLVESGGGLVQAGGSLRLSCAASGYIFRIYAMGWYRQAPGKERELVARISSGGGTNYADSVKGRFTISRDNAKNTVYLQMNSLKPEDTAVYYCNAGYGYQRGGVFFYRMGYWGQGTQVTVSS | high polyreactivity |
| QVQLVESGGGLVQAGGSLRLSCAASGYIFRKYAMGWYRQAPGKERELVADISSSGGSTYYADSVKGRFTISRDNAKNTVYLQMNSLKPEDTAVYYCAKDRKSSRRITRMDYWGQGTQVTVSS | high polyreactivity |
| QVQLVESGGGLVQAGGSLRLSCAASGYIFRYNAMGWYRQAPGTEREFVASINWSGGRTYYADSVKGRFTLSRDNAKNTVYLQMNSLKPEDTAVYYCAAVYYVSLVYGYYVEGSYEYYYWGQGTQVTVSS | high polyreactivity |
| QVQLVESGGGLVQAGGSLRLSCAASGYIFSGYAMGWYRQAPGKERELVAAISSNGGSTYYADSVKGRFTISRDNAKNTVYLQMISLKPEDTAVYYCNRGLAARVGRGDYWGQGTQVTVSS | low polyreactivity |
| QVQLVESGGGLVQAGGSLRLSCAASGYIFSRYAMGWYRPAPGKERELVAAITRSGTRTYYADSVKGRFTISRDNAKNTVYLQMNSLKPEDTAVYYCAKQYLYSSGFDYWGQGTQVTVSS | high polyreactivity |
| QVQLVESGGGLVQAGGSLRLSCAASGYIFSYYAMGWYRQAPGKEREFVAAIRWRGGSTYYADSVKGRFTISRDYAKNTVYLQMNSLKPEDTEVYYCAAGPATSYYWGQGTQVTVSS | high polyreactivity |
| QVQLVESGGGLVQAGGSLRLSCAASGYIFSYYAMGWYRQAPGKERELVAAINRSGGRTYYADSVKGRFTISRDNAKNTVYLQMNSLKPEDTAVYYCNAYSGLSYRYGYYYWGQGTQVTVSS | high polyreactivity |
| QVQLVESGGGLVQAGGSLRLSCAASGYIFTEYDMGWSRQAPGKERELVAANSESGGSTYYADSVKGRFTISRDNAKNTVYLQMNSLKPEDTAVYYCAADQYYYWYTHQSIGYDYWGQGTQVTVSS | low polyreactivity |
| QVQLVESGGGLVQAGGSLRLSCAASGYIFTSYAMGWYRQAPGKERELVATITTGGSTYYADSVKGRFTISRDNAKNTVYFQMNSLKPEDTAVYYCNAVLHGWYDYWGQGTQVTVSS | low polyreactivity |
| QVQLVESGGGLVQAGGSLRLSCAASGYIFTTYAMGWYRQAPGKERELVAAISSSGGRTSYADSVKGRFTISRDNAKNTVYLQMNSLKPEDTAVYYCNARVAPKSRRITYGYWGQGTQVTVSS | high polyreactivity |
| QVQLVESGGGLVQAGGSLRLSCAASGYIFTYYTMGWYRQAPGKERELVAAITSSGSRTRYADSVKGRFTISRDNAKNTVYLQMNSLKPEDTAVYYCAAVYRLKSGVEWRDSQFGYWGQGTQVTVSS | high polyreactivity |
| QVQLVESGGGLVQAGGSLRLSCAASGYIFVGNAMGWYRQAPGKERELVATIRSSTGNTYADSVKGRFTISRDNAKNTVYLQMNSLKPEDTAVYYCATVYEWPGWGREYGYWGQGTQVTVSS | low polyreactivity |
| QVQLVESGGGLVQAGGSLRLSCAASGYIFVHYAMGWYRQAPGKERDLVAAITRGGNTYYADSVKGRFTISRDNANNTVNLQMNSLKPEDTAVHYCAADNYGRGAGYDYWGQGSQVTVSS | high polyreactivity |
| QVQLVESGGGLVQAGGSLRLSCAASGYIFVIYAMGWYSQAPGEERELVAAISWSGDTTYYADSVKGRFTISRDNAKNTVYLQMNSLQPEDTAVFYCNAETAYYQVDYCGQGTQVTVSS | low polyreactivity |

Source: the nanobody polyreactivity screen of Harvey et al. (2022)
